Reference: IntAct's records for PubMed 25232744

B1: Forkhead box protein P2 (Homo sapiens), O15409-1 (parent)
chain: MMQESATETISNSSMNQNGMSTLSSQLDAGSRDGRSSGDTSSEVSTVELLHLQQQQALQAARQLLLQQQTSGLKSPKSSDKQRPLQVPVSVAMMTPQVITPQQMQQILQQQVLSPQQLQALLQQQQAVMLQQQQLQEFYKKQQEQLHLQLLQQQQQQQQQQQQQQQQQQQQQQQQQQQQQQQQQQQQQQQQHPGKQAKEQQQQQQQQQQLAAQQLVFQQQLLQMQQLQQQQHLLSLQRQGLISIPPGQAALPVQSLPQAGLSPAEIQQLWKEVTGVHSMEDNGIKHGGLDLTTNNSSSTTSSNTSKASPPITHHSIVNGQSSVLSARRDSSSHEETGASHTLYGHGVCKWPGCESICEDFGQFLKHLNNEHALDDRSTAQCRVQMQVVQQLEIQLSKERERLQAMMTHLHMRPSEPKPSPKPLNLVSSVTMSKNMLETSPQSLPQTPTTPTAPVTPITQGPSVITPASVPNVGAIRRRHSDKYNIPMSSEIAPNYEFYKNADVRPPFTYATLIRQAIMESSDRQLTLNEIYSWFTRTFAYFRRNAATWKNAVRHNLSLHKCFVRVENVKGAVWTVDEVEYQKRRSQKITGSPTLVKNIPTSLGYGAALNASLQAALAESSLPLLSNPGLINNASSGLLQAVHEDLNGSLDHIDSNGNSSPGCSPQPHIHSIHVKEEPVIAEDEDCPMSLVTTANHSPELEDDREIEEEPLSEDLE
partner: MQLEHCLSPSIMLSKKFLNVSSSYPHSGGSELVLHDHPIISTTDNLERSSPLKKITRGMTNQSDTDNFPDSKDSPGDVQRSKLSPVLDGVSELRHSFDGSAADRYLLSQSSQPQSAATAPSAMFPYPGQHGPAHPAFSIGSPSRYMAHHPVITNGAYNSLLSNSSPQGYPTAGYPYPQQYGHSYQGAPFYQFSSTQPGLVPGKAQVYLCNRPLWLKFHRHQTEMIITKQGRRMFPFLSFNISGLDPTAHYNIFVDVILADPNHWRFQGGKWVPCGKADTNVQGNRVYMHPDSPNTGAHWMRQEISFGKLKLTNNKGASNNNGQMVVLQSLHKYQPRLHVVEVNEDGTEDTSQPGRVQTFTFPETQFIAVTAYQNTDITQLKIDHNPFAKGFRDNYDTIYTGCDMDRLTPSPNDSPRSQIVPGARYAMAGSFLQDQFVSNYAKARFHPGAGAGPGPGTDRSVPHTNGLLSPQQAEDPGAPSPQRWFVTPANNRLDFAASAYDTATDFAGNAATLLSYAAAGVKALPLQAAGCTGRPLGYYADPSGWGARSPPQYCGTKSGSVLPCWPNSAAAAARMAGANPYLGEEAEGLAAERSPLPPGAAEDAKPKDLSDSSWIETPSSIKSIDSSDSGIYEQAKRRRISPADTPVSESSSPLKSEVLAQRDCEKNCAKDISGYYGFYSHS
B2: T-box brain protein 1 (Homo sapiens), Q16650 (parent)
chain: B1 partner

Variants of: B1
Conditions: with tbr1_human TBR1, Q16650

effect of a mutation on the interaction	Variant
decreasing interaction strength	R553H

Variants of: B2
Conditions: with FOXP2, O15409-1

Variant	effect of a mutation on the interaction
V356M	decreasing interaction strength
N374H	disrupting interaction strength
P542R	decreasing interaction strength

More lines, now with the values ahead:

effect of a mutation on the interaction	Variant
disrupting interaction strength	Q418R
decreasing interaction strength	Q178E
disrupting interaction strength	K228E
